This note sets out measurements from patent publication US20140186327.

The target in data set [1] is T1, soluble tissue factor (sTF), P13726.
T1 chain: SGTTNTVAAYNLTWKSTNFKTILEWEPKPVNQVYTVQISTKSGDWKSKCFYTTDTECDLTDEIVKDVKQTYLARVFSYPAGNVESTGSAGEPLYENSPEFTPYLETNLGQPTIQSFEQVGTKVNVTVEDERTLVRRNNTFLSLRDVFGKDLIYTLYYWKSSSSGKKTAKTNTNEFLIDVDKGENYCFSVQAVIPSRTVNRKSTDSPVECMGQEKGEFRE

Consider FXI protease, for which, in the data set on FIX-/FXI/-XTEN_AE864, the Concentration by Activity (ng/ml), aPTT based factor assay was determined as 11 ng/mL; the “Fraction Active (activity / ELISA)” value came to 40%; the “fold enhancement of clotting activity against FIX-XTEN (aPTT based factor assay)” value (from here on “fold enhancement of clotting activity”) is on record as “In all three cases the presence of a FXI cleavage site enhanced the clotting activity by greater than 30-fold”. In the data set on FIX-DFTRVVG-XTEN_AE864, the Concentration by Activity (ng/ml), aPTT based factor assay amounted to 9 ng/mL; the “Fraction Active (activity / ELISA)” value was determined as 34%; the “fold enhancement of clotting activity” value is listed as “In all three cases the presence of a FXI cleavage site enhanced the clotting activity by greater than 30-fold”. Also, in the data set on FIX-KLTRAET-XTEN_AE864, the Concentration by Activity (ng/ml), aPTT based factor assay is 7 ng/mL; the “Fraction Active (activity / ELISA)” value is 30%; the “fold enhancement of clotting activity” value was “In all three cases the presence of a FXI cleavage site enhanced the clotting activity by greater than 30-fold”.
As to FXa from Novagen, the “conversion of FVII-XTEN to FVIIa-XTEN (reducing SDS-PAGE)” value in the data set on FVII-XTEN_AE288 and with FVII-XTEN_AE864 was “Reducing SDS-PAGE indicated a complete conversion of FVII-XTEN proteins to FVIIa-XTEN proteins” throughout.

B1: FVIIa-AE288 (protein)
chain: AVFVTQEEAHGVLHRRRRANAFLEELRPGSLERECKEEQCSFEEAREIFKDAERTKLFWISYSDGDQCASSPCQNGGSCKDQLQSYICFCLPAFEGRNCETHKDDQLICVNENGGCEQYCSDHTGTKRSCRCHEGYSLLADGVSCTPTVEYPCGKIPILEKRNASKPQGRIVGGKVCPKGECPWQVLLLVNGAQLCGGTLINTIWVVSAAHCFDKIKNWRNLIAVLGEHDLSEHDGDEQSRRVAQVIIPSTYVPGTTNHDIALLRLHQPVVLTDHVVPLCLPERTFSERTLAFVRFSLVSGWGQLLDRGATALELMVLNVPRLMTQDCLQQSRKVGDSPNITEYMFCAGYSDGSKDSCKGDSGGPHATHYRGTWYLTGIVSWGQGCATVGHFGVYTRVSQYIEWLQKLMRSEPRPGVLLRAPFPGSPGTSESATPESGPGSEPATSGSETPGTSESATPESGPGSEPATSGSETPGTSESATPESGPGTSTEPSEGSAPGSPAGSPTSTEEGTSESATPESGPGSEPATSGSETPGTSESATPESGPGSPAGSPTSTEEGSPAGSPTSTEEGTSTEPSEGSAPGTSESATPESGPGTSESATPESGPGTSESATPESGPGSEPATSGSETPGSEPATSGSETPGSPAGSPTSTEEGTSTEPSEGSAPGTSTEPSEGSAPGSEPATSGSETPGTSESATPESGPGTSTEPSEGSAPGSSS
For the molecule B1, the “soluble tissue factor (sTF) induced clotting (Stago STA-Clot FVIIa activity assay)” value in data set [1] is reported as “an activity equivalent to 112 U/ml of FVIIa activity”.
